The source of these data is paper PMC6532394.

Read-outs that look alike come from different tables or passages of the source.

Holding throughout (experiment): fluorescence anisotropy
On the technique in general: In fluorescence polarisation assays a small probe gives low polarisation when free and higher when bound to something large.

The target of data set [1] is T1, MeCP2 (full-length) (human, UniProt P51608 1-486).
Data set [2] concerns the target T1, MeCP2 (full-length). The source holds these as a separate data set.
Data set [3] addresses T1, MeCP2 (full-length). The source holds these as a separate data set.
In data set [4] the target is T1, MeCP2 (full-length). This is another data set of the same source.
In data set [5] the target is T1, MeCP2 (full-length). The source holds these as a separate data set.
The target of data set [6] is T1, MeCP2 (full-length). The source holds these as a separate data set.
In data set [7] the target is T1, MeCP2 (full-length). The source holds these as a separate data set.

T1 sequence (P51608 whole entry): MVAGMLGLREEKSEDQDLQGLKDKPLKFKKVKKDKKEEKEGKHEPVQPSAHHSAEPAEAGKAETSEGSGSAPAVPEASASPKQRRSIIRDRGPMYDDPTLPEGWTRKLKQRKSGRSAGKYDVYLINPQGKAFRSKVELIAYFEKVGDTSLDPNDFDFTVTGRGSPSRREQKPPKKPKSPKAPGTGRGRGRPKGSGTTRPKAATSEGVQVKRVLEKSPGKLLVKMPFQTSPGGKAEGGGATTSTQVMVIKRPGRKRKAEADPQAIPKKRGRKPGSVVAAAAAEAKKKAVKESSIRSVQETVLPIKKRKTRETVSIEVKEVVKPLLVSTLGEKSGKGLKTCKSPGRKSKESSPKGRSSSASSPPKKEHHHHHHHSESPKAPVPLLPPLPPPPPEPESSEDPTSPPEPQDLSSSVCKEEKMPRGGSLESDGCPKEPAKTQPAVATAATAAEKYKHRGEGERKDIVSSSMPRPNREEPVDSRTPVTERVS

B1: mCpG 20 bp duplex (m/m) (dsDNA)
DNA 1: TCTGGAACGGAATTCTTCTA
DNA 2: TAGAAGAATTCCGTTCCAGA
modifications: 5mC at CpG C of both strands (strand 1 C8, strand 2 C12)
One may read the Kd as the free concentration of one partner at which half of the binding sites on the other are occupied at equilibrium, for simple one-to-one binding. Read a low Kd as a tighter complex. Consider B1, for which the Kd with MeCP2 (full-length) [1] turned out to be 5.2 ± 0.4 nM; with MeCP2 (full-length) [2] it was 28.3 ± 1.1 nM; in the data set with MeCP2 (full-length) [3], 80.3 ± 2.5 nM; in the data set with MeCP2 (full-length) [4], 36.5 ± 1.4 nM.

B2: CpG 20 bp duplex (-/-) (dsDNA)
DNA 1: TCTGGAACGGAATTCTTCTA
DNA 2: TAGAAGAATTCCGTTCCAGA
modifications: none
On to B2, for which the Kd with MeCP2 (full-length) [5] was found to be 155 ± 3.7 nM; in the data set with MeCP2 (full-length) [6], 6.3 ± 0.3 nM; with MeCP2 (full-length) [7] it was 56.5 ± 1.8 nM.
